Laboratory results as given in IntAct's records for PubMed 21217698.

B1: DnaJ homolog subfamily B member 11 (Mus musculus), Q99KV1 (parent)
chain: MAPQNLSTFCLLLLYLIGTVIAGRDFYKILGVPRSASIKDIKKAYRKLALQLHPDRNPDDPQAQEKFQDLGAAYEVLSDSEKRKQYDTYGEEGLKDGHQSSHGDIFSHFFGDFGFMFGGTPRQQDRNIPRGSDIIVDLEVTLEEVYAGNFVEVVRNKPVARQAPGKRKCNCRQEMRTTQLGPGRFQMTQEVVCDECPNVKLVNEERTLEVEIEPGVRDGMEYPFIGEGEPHVDGEPGDLRFRIKVVKHRIFERRGDDLYTNVTVSLVEALVGFEMDITHLDGHKVHISRDKITRPGAKLWKKGEGLPNFDNNNIKGSLIITFDVDFPKEQLTEEAKEGIKQLLKQGPVQKVYNGLQGY

Variants of: B1
Details: with bip_mouse Hspa5, P20029
Sequence of bip_mouse Hspa5, P20029 (P20029 whole entry): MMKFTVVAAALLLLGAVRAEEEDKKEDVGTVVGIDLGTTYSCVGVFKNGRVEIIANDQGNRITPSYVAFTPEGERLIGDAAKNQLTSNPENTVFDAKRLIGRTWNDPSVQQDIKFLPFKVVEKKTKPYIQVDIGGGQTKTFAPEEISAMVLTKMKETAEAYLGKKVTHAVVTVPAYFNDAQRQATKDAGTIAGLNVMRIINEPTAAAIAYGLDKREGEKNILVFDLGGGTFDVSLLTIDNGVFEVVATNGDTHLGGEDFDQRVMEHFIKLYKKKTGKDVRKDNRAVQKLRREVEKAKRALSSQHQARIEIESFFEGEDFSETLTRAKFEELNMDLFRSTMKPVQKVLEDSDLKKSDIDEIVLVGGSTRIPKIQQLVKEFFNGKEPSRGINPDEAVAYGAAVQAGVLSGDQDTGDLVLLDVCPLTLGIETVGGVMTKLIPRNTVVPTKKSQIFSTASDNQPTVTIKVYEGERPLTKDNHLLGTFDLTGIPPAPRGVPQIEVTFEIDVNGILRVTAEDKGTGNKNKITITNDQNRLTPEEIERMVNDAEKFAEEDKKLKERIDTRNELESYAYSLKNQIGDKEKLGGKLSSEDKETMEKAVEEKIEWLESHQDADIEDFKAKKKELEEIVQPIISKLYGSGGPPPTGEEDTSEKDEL

effect of a mutation on the interaction | Variant
disrupting interaction | H53Q
